Data published in paper PMC11162772, “FUS reads histone H3K36me3 to regulate alternative polyadenylation”.

Experiments:
FUS-ΔZNF = FUS-ΔZNF (UniProt P35637 1-421+454-526, internal_change); test: MST; no significant decrease vs WT; MST: PBS with 0.05% BSA and 0.05% Tween-20, 5 nM Cy5-RNA, temperature not stated; nucleosome pull-down buffer not given; conditions: protein: recombinant; tags: GST (pGEX-6p-2); label: 3' Cy5
[1] = molecular target: FUS P421L (so in the source) (UniProt P35637 1-526, P431L); test: MST; slightly increased affinity vs WT; MST: PBS with 0.05% BSA and 0.05% Tween-20, 5 nM Cy5-RNA, temperature not stated; nucleosome pull-down buffer not given; conditions: protein: recombinant; tags: GST (pGEX-6p-2); label: 3' Cy5
Chain of FUS P421L (so in the source) (P35637 whole entry P431L): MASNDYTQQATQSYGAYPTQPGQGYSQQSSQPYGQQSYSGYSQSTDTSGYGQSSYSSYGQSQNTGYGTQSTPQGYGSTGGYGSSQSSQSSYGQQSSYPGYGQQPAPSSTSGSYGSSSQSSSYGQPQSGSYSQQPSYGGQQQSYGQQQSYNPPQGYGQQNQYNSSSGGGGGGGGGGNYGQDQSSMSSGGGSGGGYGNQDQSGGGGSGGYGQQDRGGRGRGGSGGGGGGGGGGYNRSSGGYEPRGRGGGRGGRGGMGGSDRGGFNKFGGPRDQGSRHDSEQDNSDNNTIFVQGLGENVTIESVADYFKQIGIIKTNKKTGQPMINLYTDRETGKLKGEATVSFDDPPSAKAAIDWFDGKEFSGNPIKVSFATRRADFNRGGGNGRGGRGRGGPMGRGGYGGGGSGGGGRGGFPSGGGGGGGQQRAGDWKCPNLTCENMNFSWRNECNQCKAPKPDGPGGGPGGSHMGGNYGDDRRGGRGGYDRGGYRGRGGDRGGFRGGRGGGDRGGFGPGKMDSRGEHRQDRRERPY

Chain of FUS-ΔZNF (P35637 other isoform, or with tags, fused parts or gaps | mutant): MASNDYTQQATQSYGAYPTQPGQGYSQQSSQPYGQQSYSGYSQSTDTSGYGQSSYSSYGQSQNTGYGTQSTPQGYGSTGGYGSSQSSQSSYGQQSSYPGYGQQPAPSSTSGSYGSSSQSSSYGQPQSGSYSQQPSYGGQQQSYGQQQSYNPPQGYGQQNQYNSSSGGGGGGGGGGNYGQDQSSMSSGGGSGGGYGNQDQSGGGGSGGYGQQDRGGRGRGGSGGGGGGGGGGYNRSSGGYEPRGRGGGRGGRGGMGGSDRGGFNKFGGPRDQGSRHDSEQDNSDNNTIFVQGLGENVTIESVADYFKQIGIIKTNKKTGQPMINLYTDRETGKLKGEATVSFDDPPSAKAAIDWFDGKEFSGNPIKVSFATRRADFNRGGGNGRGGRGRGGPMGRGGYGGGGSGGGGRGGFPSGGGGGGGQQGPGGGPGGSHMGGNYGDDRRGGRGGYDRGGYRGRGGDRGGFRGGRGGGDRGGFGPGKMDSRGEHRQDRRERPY

Binder	binding result (FUS-ΔZNF)	binding result [1]
UUAGGGUUAGGGUUAGGGUUAGGG (ssRNA) [4XUUAGGG-3'Cy5]	binds	
GGUGGGUGGGUGGGUGGGUG (ssRNA) [5XGGUG-3'Cy5]	binds	binds
